Columns and labels:
[1] = system: Type I-C Cascade with Cas3-Cas8 tether (Pseudomonas aeruginosa); test: cell_activity; details: smaller deletions than untethered; PAM not stated
[2] = system: Type I-C Cascade-Cas3 D370A (helicase mutant) Cas3 D370A (Pseudomonas aeruginosa); test: cell_activity; details: smaller deletions; PAM not stated

**Q.** With “crRNA targeting 200 bp upstream of phzM ; site 200 bp upstream of phzM” as the substance, how does the activity (% survivors with deletion (17/20)) [1] read?
**A.** 85

**Q.** And the activity (% survivors edited) [2]?
**A.** 25

Reference: patent publication US20220356470
